According to patent US20100099103A1:

Target: human TNF (hTNF) (human) (UniProt P01375)
Assay: method not stated (free scFv protein; titration curves in FIG. 11)

Chain of UniProt P01375 (P01375 77-233 limits assumed): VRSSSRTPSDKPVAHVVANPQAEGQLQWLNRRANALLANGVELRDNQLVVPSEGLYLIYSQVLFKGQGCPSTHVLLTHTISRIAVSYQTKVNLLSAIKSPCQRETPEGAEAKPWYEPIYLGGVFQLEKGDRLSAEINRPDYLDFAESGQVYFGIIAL

- Kd: 200 nM
Substance: 2SD4 scFv (D2E7 scFv precursor), free protein
